Measurements as given in patent US20230220042A1 (SHANGHAI JIAO TONG UNIVERSITY SCHOOL OF MEDICINE, published 2023).
Positions count from the first letter of the chain named. In names and notes the source's numbering stands. One block for each molecule: values may come before it.

Tests used:
[1] = target: Biotin-FcγRIIB (human FcγRIIB, Sino Biological) (human) (UniProt P31994); assay: NGS after FACS sort of 3T3-displayed LibraryMix for biotin-FcγRIIB binding
Biotin-FcγRIIB (human) [2] = target: Biotin-FcγRIIB (human) (UniProt P31994); assay: NGS of 3T3 display library Cmix flow-sorted for FcγRIIB binding
Biotin-FcγRIIB (human) [3] = target: Biotin-FcγRIIB (human) (UniProt P31994); assay: NGS of 3T3 display library IgG2_C01 flow-sorted for FcγRIIB binding
Biotin-FcγRIIB (human) [4] = target: Biotin-FcγRIIB (human) (UniProt P31994); assay: NGS of 3T3 display library C2 flow-sorted for FcγRIIB binding
Biotin-FcγRIIB (human) [5] = target: Biotin-FcγRIIB (human) (UniProt P31994); assay: NGS of 3T3 display library IgG2_C02 flow-sorted for FcγRIIB binding
Biotin-FcγRIIB (human) [6] = target: Biotin-FcγRIIB (human) (UniProt P31994); assay: FACS sorting of displayed Fc library on biotin-FcγRIIB, NGS
Biotin-FcγRIIB (human) [7] = target: Biotin-FcγRIIB (human) (UniProt P31994); assay: FACS sorting of displayed Fc library on biotin-FcγRIIB, NGS; reference G236V
Biotin-FcγRIIB (human) [8] = target: Biotin-FcγRIIB (human) (UniProt P31994); assay: FACS sorting of displayed Fc library on biotin-FcγRIIB, NGS; reference P271G
Biotin-FcγRIIB (human) [9] = target: Biotin-FcγRIIB (human) (UniProt P31994); assay: sorting of displayed Fc library on FcγRIIB, NGS
Biotin-FcγRIIB (human) [10] = target: Biotin-FcγRIIB (human) (UniProt P31994); assay: magnetic sorting on biotin-FcγRIIB with unlabelled activating FcγRs, NGS; Library4
Biotin-FcγRIIB (human) [11] = target: Biotin-FcγRIIB (human) (UniProt P31994); assay: magnetic sorting on biotin-FcγRIIB with unlabelled activating FcγRs, NGS; LibraryMix #4
Biotin-FcγRIIB (human) [12] = target: Biotin-FcγRIIB (human) (UniProt P31994); assay: magnetic sorting on biotin-FcγRIIB with unlabelled activating FcγRs, NGS; LibraryMix #3
Biotin-FcγRIIB (human) [13] = target: Biotin-FcγRIIB (human) (UniProt P31994); assay: magnetic sorting on biotin-FcγRIIB with unlabelled activating FcγRs, NGS; Library2
Biotin-FcγRIIB [14] = target: T1, Biotin-FcγRIIB (human, UniProt P31994 43-217, limits assumed, biotin-labelled); assay: FACS sorting of displayed Fc library on biotin-FcγRIIB, NGS
T1 construct: Bought, biotin-labelled; used at 1 µg/ml for staining and sorting; also called human FcγRIIB; CD32b
T1 sequence (looked up): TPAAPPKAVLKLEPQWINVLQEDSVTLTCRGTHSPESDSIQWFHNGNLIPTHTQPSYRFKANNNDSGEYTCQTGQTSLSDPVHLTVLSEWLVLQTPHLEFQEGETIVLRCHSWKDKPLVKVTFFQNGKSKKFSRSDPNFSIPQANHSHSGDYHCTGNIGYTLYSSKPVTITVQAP

Biotin-FcγRIIB [15] = target: T1, Biotin-FcγRIIB; assay: FACS sorting of displayed Fc library on biotin-FcγRIIB, NGS; reference S298R
Biotin-FcγRIIB [16] = target: T1, Biotin-FcγRIIB; assay: FACS sorting of displayed Fc library on biotin-FcγRIIB, NGS; reference P271G
Biotin-FcγRIIB [17] = target: T2, Biotin-FcγRIIB (human, UniProt P31994 43-217, limits assumed, biotin label); assay: NGS of 3T3 display library IgG2_C02 flow-sorted for FcγRIIB binding
T2 construct: Soluble labelled protein used to stain and sort the display cells; also called human FcγRIIB; CD32b
T2 sequence (looked up): T1 sequence (looked up)
From the text: Then flow cytometry is used for sorting the cells with high affinity to FcγRIIB for two to three rounds. […] IgG2_C01 is a combined mutation (Type I) library having at most 1 mutation in each of the four regions of P233-V240, V266-P271, S298-T299, and G327-I332; IgG2_C02 is a cell library made by combining the combined mutation (Type II) libraries of four regions of P233-V240, V266-P271, S298-T299 and G327-I332 together and transferring it into 3T3 cells.

Biotin-FcγRIIB [18] = target: T1, Biotin-FcγRIIB; assay: FACS sorting of displayed Fc library on biotin-FcγRIIB, NGS; reference S267E
Biotin-FcγRIIB [19] = target: T1, Biotin-FcγRIIB; assay: FACS sorting of displayed Fc library on biotin-FcγRIIB, NGS; reference P271C

Molecule: human IgG2 anti-mouse CD40 surface displayed antibody, Fc mutant P271G/G236V
Enrichment factor (after/before sorting) (Biotin-FcγRIIB (human) [6]): 10.3
Increased factor a (enrichment factor/wild-type enrichment factor) (Biotin-FcγRIIB (human) [6]): 13.7
Increased factor 2 c Site 2 (combined/point mutation) (Biotin-FcγRIIB (human) [7]): 30.5
Increased factor 2 c Site 1 (combined/point mutation) (Biotin-FcγRIIB (human) [8]): 2.9

Molecule: human IgG2 anti-mouse CD40 surface displayed antibody, Fc mutant G236D
Enrichment factor (percentage after sorting/percentage before sorting) (Biotin-FcγRIIB (human) [9]): 0.84

Molecule: human IgG2 anti-mouse CD40 surface displayed antibody (wild-type IgG2 Fc)
Enrichment factor (percentage after sorting/percentage before sorting) (Biotin-FcγRIIB (human) [10]): 0.88
Percentage after sorting/unbinding percentage (Biotin-FcγRIIB (human) [10]): 0.85
Percentage before sorting/unbinding percentage (Biotin-FcγRIIB (human) [10]): 0.97
Enrichment factor (percentage after sorting/percentage before sorting) (Biotin-FcγRIIB (human) [11]): 0.94
Percentage after sorting/unbinding percentage (Biotin-FcγRIIB (human) [11]): 0.95
Percentage before sorting/unbinding percentage (Biotin-FcγRIIB (human) [11]): 1.01
Enrichment factor (percentage after sorting/percentage before sorting) (Biotin-FcγRIIB (human) [12]): 1.13
Percentage after sorting/unbinding percentage (Biotin-FcγRIIB (human) [12]): 1.06
Percentage before sorting/unbinding percentage (Biotin-FcγRIIB (human) [12]): 0.94
Enrichment factor (percentage after sorting/percentage before sorting) (Biotin-FcγRIIB (human) [13]): 0.83
Percentage after sorting/unbinding percentage (Biotin-FcγRIIB (human) [13]): 0.58
Percentage before sorting/unbinding percentage (Biotin-FcγRIIB (human) [13]): 0.7

B1: human IgG2 anti-mouse CD40 surface displayed antibody, Fc mutant P271A/S298R (antibody, name in EU numbering)
light chain (with the P2A rest): DTVLTQSPALAVSPGERVTISCRASDSVSTLMHWYQQKPGQQPKLLIYLASHLESGVPARFSGSGSGTDFTLTIDPVEADDTATYYCQQSWNDPWTFGGGTKLELKRTVAAPSVFIFPPSDEQLKSGTASVVCLLNNFYPREAKVQWKVDNALQSGNSQESVTEQDSKDSTYSLSSTLTLSKADYEKHKVYACEVTHQGLSSPVTKSFNRGECGSGATNFSLLKQAGDVEENPG
heavy chain: EVQLVESDGGLVQPGRSLKLPCAASGFTFSDYYMAWVRQAPTKGLEWVASISYDGSSTYYRDSVKGRFTISRDNAKSTLYLQMDSLRSEDTATYYCGRHSSYFDYWGQGVMVTVSSASTKGPSVFPLAPCSRSTSESTAALGCLVKDYFPEPVTVSWNSGALTSGVHTFPAVLQSSGLYSLSSVVTVPSSNFGTQTYTCNVDHKPSNTKVDKTVERKCCVECPPCPAPPVAGPSVFLFPPKPKDTLMISRTPEVTCVVVDVSHEDAEVQFNWYVDGVEVHNAKTKPREEQFNRTFRVVSVLTVVHQDWLNGKEYKCKVSNKGLPAPIEKTISKTKGQPREPQVYTLPPSREEMTKNQVSLTCLVKGFYPSDIAVEWESNGQPENNYKTTPPMLDSDGSFFLYSKLTVDKSRWQQGNVFSCSVMHEALHNHYTQKSLSLSPGKLEPPPSTVSNMATVAVLVVLGAAIVTGAVVAFVMKMRRRNTGGKGGDYALAPGSQTSDLSLPDCKVMVHDPHSLA
notes: as m1; positions are Eu numbers; copies: 2 + 2
Enrichment factor (after/before sorting) (Biotin-FcγRIIB [14]): 2.45
Increased factor a (enrichment factor/wild-type enrichment factor) (Biotin-FcγRIIB [14]): 3.27
Increased factor 2 c Site 2 (combined/point mutation) (Biotin-FcγRIIB [15]): 4.2

B2: human IgG2 anti-mouse CD40 surface displayed antibody, Fc mutant P271G/S298R (antibody, name in EU numbering)
light chain (with the P2A rest): B1 light chain (with the P2A rest)
heavy chain: B1 heavy chain with A266G
notes: as for B1
Enrichment factor (after/before sorting) (Biotin-FcγRIIB [14]): 16
Increased factor a (enrichment factor/wild-type enrichment factor) (Biotin-FcγRIIB [14]): 21.4
Increased factor 2 c Site 1 (combined/point mutation) (Biotin-FcγRIIB [16]): 4.5
Increased factor 2 c Site 2 (combined/point mutation) (Biotin-FcγRIIB [15]): 27.4

B4: human IgG2 anti-mouse CD40 surface displayed antibody, Fc mutant S267E/P271C (antibody, name in EU numbering)
light chain (with the P2A rest): B1 light chain (with the P2A rest)
heavy chain: B1 heavy chain with S262E, A266C, R293S
notes: as for B1
Increased factor 2 c Site 1 (combined/point mutation) (Biotin-FcγRIIB [18]): 61.2
Enrichment factor (after/before sorting) (Biotin-FcγRIIB [14]): 1000
Increased factor a (enrichment factor/wild-type enrichment factor) (Biotin-FcγRIIB [14]): 1740
Increased factor 2 c Site 2 (combined/point mutation) (Biotin-FcγRIIB [19]): 58.4

B5: human IgG2 anti-mouse CD40 surface displayed antibody, Fc mutant S267E/S298R (antibody, name in EU numbering)
light chain (with the P2A rest): B1 light chain (with the P2A rest)
heavy chain: B1 heavy chain with S262E, A266P
notes: as for B1
Increased factor 2 c Site 1 (combined/point mutation) (Biotin-FcγRIIB [18]): 1.5
Enrichment factor (after/before sorting) (Biotin-FcγRIIB [14]): 32.8
Increased factor a (enrichment factor/wild-type enrichment factor) (Biotin-FcγRIIB [14]): 43.8
Increased factor 2 c Site 2 (combined/point mutation) (Biotin-FcγRIIB [15]): 56.2

B7: human IgG2 anti-mouse CD40 surface displayed antibody, Fc mutant S267M/P271C (antibody, name in EU numbering)
light chain (with the P2A rest): B1 light chain (with the P2A rest)
heavy chain: B1 heavy chain with S262M, A266C, R293S
notes: as for B1
Enrichment factor (after/before sorting) (Biotin-FcγRIIB [14]): 32.1
Increased factor a (enrichment factor/wild-type enrichment factor) (Biotin-FcγRIIB [14]): 56
Increased factor 2 c Site 2 (combined/point mutation) (Biotin-FcγRIIB [19]): 1.9

Results, then the molecule that gave them:

Enrichment factor (percentage after sorting/percentage before sorting) [1]: 10.3
Increased factor (enrichment factor/wild-type enrichment factor) [1]: 13.7
Molecule: human IgG2 anti-mouse CD40 surface displayed antibody, P271G/G236V

percentage after 1st sorting (Biotin-FcγRIIB (human) [2]): 1.32%
percentage after 2nd sorting (Biotin-FcγRIIB (human) [2]): 1.03%
percentage after 3rd sorting (Biotin-FcγRIIB (human) [2]): 0.4%
percentage before sorting (Biotin-FcγRIIB (human) [2]): 1.07%
percentage after 1st sorting (Biotin-FcγRIIB (human) [3]): 61.6%
percentage after 2nd sorting (Biotin-FcγRIIB (human) [3]): 54.2%
percentage before sorting (Biotin-FcγRIIB (human) [3]): 63.8%
percentage after 1st sorting (Biotin-FcγRIIB (human) [4]): 2.51%
percentage after 2nd sorting (Biotin-FcγRIIB (human) [4]): 5.25%
percentage after 3rd sorting (Biotin-FcγRIIB (human) [4]): 12.6%
percentage before sorting (Biotin-FcγRIIB (human) [4]): 8.97%
percentage after 1st sorting (Biotin-FcγRIIB (human) [5]): 58.4%
percentage after 2nd sorting (Biotin-FcγRIIB (human) [5]): 47.8%
percentage before sorting (Biotin-FcγRIIB (human) [5]): 56.6%
Molecule: human IgG2 anti-mouse CD40 surface displayed antibody, wild-type Fc

Enrichment factor (percentage after sorting/percentage before sorting) (Biotin-FcγRIIB (human) [9]): 0.92
Molecule: human IgG2 anti-mouse CD40 surface displayed antibody, Fc mutant S298A

enrichment factor, percentage after 1st sorting/percentage before sorting (Biotin-FcγRIIB [17]): 80.5 ratio
enrichment factor, percentage after 2nd sorting/percentage after 1st sorting (Biotin-FcγRIIB [17]): 83.7 ratio
enrichment factor, percentage after 2nd sorting/percentage before sorting (Biotin-FcγRIIB [17]): 6730 ratio
increased factor, mutant enrichment factor/wild-type enrichment factor (Biotin-FcγRIIB [17]): 7970 ratio
B3: human IgG2 anti-mouse CD40 surface displayed antibody, S267E/H268S/E269D (antibody, name in EU numbering)
light chain (with the P2A rest): B1 light chain (with the P2A rest)
heavy chain: B1 heavy chain with S262E, H263S, E264D, A266P, R293S
notes: As m1 with the Fc mutations

Enrichment factor (after/before sorting) (Biotin-FcγRIIB [14]): 42.2
Increased factor a (enrichment factor/wild-type enrichment factor) (Biotin-FcγRIIB [14]): 73.5
Increased factor 2 c Site 2 (combined/point mutation) (Biotin-FcγRIIB [19]): 2.5
B6: human IgG2 anti-mouse CD40 surface displayed antibody, Fc mutant V266A/P271C (antibody, name in EU numbering)
light chain (with the P2A rest): B1 light chain (with the P2A rest)
heavy chain: B1 heavy chain with V261A, A266C, R293S
notes: as for B1
